Experimental data from the supplement of paper PMC10567573.

B1: ZNF193 (parent)
chain: QCIECGKSFNRHCNLIRHQKIHTV

Variants of: B1
Test: protein stability index of a GFP-peptide fusion (GPS, HEK-293T) (PSI 1-6); higher = more stable
Conditions: c terminus: a fixed tail appended
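Also: lentivirally expressed fusions sorted by FACS into six bins by GFP to DsRed ratio, PSI derived from sequencing read proportions per bin multiplied by bin number.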

Protein stability index of substitutions, site by site:
C2: W 2.04; F 1.07; N 2.45; P 1.34; Y 2.03; G 2.13; Q 2.14; K 1.95; M 1.71; A 1.66; H 1.6
S8: Y 3.43; I 4.05; D 3.4; M 3.48; T 3.96
C5: P 2.49; M 1.94; A 2.36; E 2.71; W 2.07; H 1.98; L 1.54; N 1.79
T23: M 3.33; R 3.91; I 2.6; S 3.68; W 2.56; H 3.9
G6: W 1.5; Y 2.17; A 2.38; M 2.11; E 2.84; N 2.38; R 2.5; T 2.23
Q19: N 2.81; A 2.84; S 3.46; D 2.03; I 2.8; H 2.72; Y 2.59
V24: N 4.22; A 4.26; H 3.83; C 3.99; Y 3.4; G 3.56; Q 3.87
R17: S 3.4; M 2.95; P 2.15; T 3.75; A 3.31; H 3.13; V 2.99
H22: K 2.41; I 2.25; T 2.11; M 2.34; Q 2.7; W 1.74
I21: G 3.51; T 4.39; L 3.48; P 3.1; K 4.25
L15: N 3.29; S 2.62; W 4.43; M 3.35; Y 3.35; E 3.06
E4: L 2.66; Q 3.43; Y 3.06; C 2.54; A 3.12; I 3.54; D 2.78; F 3.94; P 1.39
F9: T 2.59; E 2.93; A 2.24; K 3.06; H 2.55
Q1: C 3.26; D 3.5; I 3.28; M 3.54; V 3.21; G 2.45; F 2.83
K7: H 2.35; W 2.18; A 3.74; Q 3.45; S 2.82; M 3.34
R11: H 3.5; Q 2.96; A 3.38; S 4.1; T 4.4; V 3.21; K 3.7; W 2.62; Y 3.04; D 4.37
H18: W 2.21; N 2.31; T 1.66; C 2.55; I 2; P 2.05; S 2.36; V 1.45
I16: W 2.46; M 3.1; E 3.44; C 3.9; T 3.3; V 3.69
N14: H 3.44; D 5.09; C 3.43; A 3.9; R 3.12
K20: V 2.66; H 2.9; P 2.7; G 2.38; W 2.22; Q 3.5; F 2.95
H12: F 3.06; A 3.48; K 3.98; W 3.19; P 3.74; T 3.71; D 3.36; V 3.76; R 3.22
N10: L 2.48; Y 2.98; Q 3.73; K 4.64; R 3.97; S 3.48; G 3.29; C 3; P 2.8
C13: G 3.75; S 3.95; F 2.62; V 3.88; Q 3.32; R 3.91
I3: P 4.11; S 4.17; E 4.31; G 3.72
